Source: US20020090680A1

Molecular target: IL-9R/h16445 cytoplasmic-domain receptor chimera (human)
Experiment: cell-based or functional assay

IL-9R/h16445 cytoplasmic-domain receptor chimera (human), sequence (Q9HBE5 254-538, change not shown): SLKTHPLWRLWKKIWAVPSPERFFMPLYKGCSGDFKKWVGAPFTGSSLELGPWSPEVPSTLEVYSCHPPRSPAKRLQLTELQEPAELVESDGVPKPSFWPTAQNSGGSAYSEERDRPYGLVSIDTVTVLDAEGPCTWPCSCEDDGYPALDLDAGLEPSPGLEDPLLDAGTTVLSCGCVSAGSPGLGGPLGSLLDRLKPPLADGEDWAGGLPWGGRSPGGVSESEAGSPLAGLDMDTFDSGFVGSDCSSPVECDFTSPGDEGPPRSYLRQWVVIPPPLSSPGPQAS

- CAT expression (HRRE-CAT reporter, HepG2 cells): > 30 fold
Substance: IL-9 (ligand)
